Reference: paper PMC10054981 (bioRxiv, 2023)
Where a chain is given by its changes, count along the chain named. Names and notes keep the numbering of the source.

B1: Speckle-type POZ protein (SPOP) wild type, residues 28-359 (domain or fragment)
chain: KVVKFSYMWTINNFSFCREEMGEVIKSSTFSSGANDKLKWCLRVNPKGLDEESKDYLSLYLLLVSCPKSEVRAKFKFSILNAKGEETKAMESQRAYRFVQGKDWGFKKFIRRDFLLDEANGLLPDDKLTLFCEVSVVQDSVNISGQNTMNMVKVPECRLADELGGLWENSRFTDCCLCVAGQEFQAHKAILAARSPVFSAMFEHEMEESKKNRVEINDVEPEVFKEMMCFIYTGKAPNLDKMADDLLAAADKYALERLKVMCEDALCSNLSVENAAEILILADLHSADQLKTQAVDFINYHASDVLETSGWKSMVVSHPHLVAEAYRSLASA
B2: C-terminal intrinsically disordered region (IDR) of DAXX (cDAXX), fluorescently labeled (domain or fragment)
chain: SPMSSLQISNEKNLEPGKQISRSSGEQQNKGRIVSPSLLSEEPLAPSSIDAESNGEQPEELTLEEESPVSQLFELEIEALPLDTPSSVETDISSSRKQSEEPFTTVLENGAGMVSSTSFNGGVSPHNWGDSGPPCKKSRKEKKQTGSGPLGNSYVERQRSVHEKNGKKICTLPSPPSPLASLAPVADSSTRVDSPSHGLVTSSLCIPSPARLSQTPHSQPPRPGTCKTSVATQCDPEEIIVLSDSD
B3: SPOP R354H, residues 28-359 (domain or fragment)
chain: B1 chain with R327H

Key:
[1] = target: fluorescently labeled peptide derived from a SPOP-binding motif from the substrate Puckered; test: fluorescence polarisation
CG-MALS = target: the molecule itself; test: CG-MALS
[2] = target: B3; test: fluorescence polarisation
[3] = target: SPOP R221C, residues 28-359 (human, UniProt O43791 28-359, R221C); test: fluorescence polarisation
[4] = target: B1; test: fluorescence polarisation

With “SPOP R221C, residues 28-359 (from UniProt O43791 28-359) (domain or fragment)” the Kd [1] was 5.9 µM.

Work on “Speckle-type POZ protein (SPOP) wild type, residues 28-359 (from UniProt O43791 28-359) (domain or fragment)” yielded a Kd [1] of 9.8 µM.

For “SPOP mutBACK (Y353E), residues 28-359 (from UniProt O43791 28-359) (domain or fragment)”, the Kd [1] was 4.3 µM.

“SPOP R354H, residues 28-359 (from UniProt O43791 28-359) (domain or fragment)” showed a Kd [1] of 5.1 µM.

With B1 the Kd (CG-MALS) was 2.7 µM.

Molecule B2 has a Kd [2] of 3 µM, a Kd [3] of 3.2 µM and a Kd [4] of 1.2 µM.

With B3 the Kd (CG-MALS) was 26.9 µM.
